Legend:
[1] = molecular target: Aleutian mink disease virus (AMDV) capsid protein VP2 (Aleutian mink disease virus (AMDV)); assay: cryo-EM structure
[2] = molecular target: Human parvovirus 4 (PARV4) capsid protein VP2 (human parvovirus 4 (PARV4)); assay: cryo-EM structure

Substance | stoichiometry N [1] | stoichiometry N [2]
Aleutian mink disease virus (AMDV) capsid protein VP2 (natural protein) | 60 | 
Human parvovirus 4 (PARV4) capsid protein VP2 (natural protein) |  | 60

Source: paper PMC9612331
